Columns and labels:
[1] = target: ovine CD27 (OaCD27), full length, C-terminally V5 tagged, on transfected HEK293 cells (Ovis aries); test: immunostaining of cells or tissue; HEK293 cells transfected with the V5-tagged receptor incubated with conditioned media from adenovirus-infected cells for 15 min, then fixed; ligand detected with anti-Fc antibody, receptor with anti-V5; confocal microscopy, pixel colocalisation in 25-40 cells
[2] = target: ovine OX40 (OaOX40), full length, C-terminally V5 tagged, on transfected HEK293 cells (Ovis aries); test: immunostaining of cells or tissue; HEK293 cells transfected with the V5-tagged receptor incubated with 10 μg of purified ligand for 15 min at 4 °C, then fixed; ligand detected with anti-ovine Fc antibody, receptor with anti-V5; confocal microscopy, pixel colocalisation in 25-40 cells
[3] = target: ovine OX40 (OaOX40), full length, C-terminally V5 tagged, on transfected HEK293 cells (Ovis aries); test: immunostaining of cells or tissue; HEK293 cells transfected with the V5-tagged receptor incubated with conditioned media from adenovirus-infected cells for 15 min, then fixed; ligand detected with anti-Fc antibody, receptor with anti-V5; confocal microscopy, pixel colocalisation in 25-40 cells
[4] = target: ovine CD27 (OaCD27), full length, C-terminally V5 tagged, on transfected HEK293 cells (Ovis aries); test: immunostaining of cells or tissue; HEK293 cells transfected with the V5-tagged receptor incubated with 10 μg of purified ligand for 15 min at 4 °C, then fixed; ligand detected with anti-ovine Fc antibody, receptor with anti-V5; confocal microscopy, pixel colocalisation in 25-40 cells

## secreted rOaCD70 expressed from recombinant adenovirus Ad5-OaCD70 (same construct as the baculovirus protein) (Fc fusion)
[1]
  percentage of ligand signal colocalising with its receptor: 73.5%

## purified recombinant ovine OX40L (rOaOX40L), baculovirus-expressed: ovine IgG1 Fc - isoleucine zipper - predicted extracellular domain of ovine OX40L (Fc fusion)
[2]
  percentage of ligand sharing pixel localisation with its receptor: 59.3%

## secreted rOaOX40L expressed from recombinant adenovirus Ad5-OaOX40L (same construct as the baculovirus protein) (Fc fusion)
[3]
  percentage of ligand signal colocalising with its receptor: 60.4%

## purified recombinant ovine CD70 (rOaCD70), baculovirus-expressed: ovine IgG1 Fc - isoleucine zipper - predicted extracellular domain of ovine CD70 (Fc fusion)
[4]
  percentage of ligand sharing pixel localisation with its receptor: 72.8%

Reference: PMC7350415
